Reference: the supplement of paper PMC10567573

B1: PPFIA4 (parent)
chain: VMTLPSDLRKHRRKLLSPVSREEN

Variants of: B1
Assay: protein stability index of a GFP-peptide fusion (GPS, HEK-293T) (PSI 1-6); higher = more stable
Settings: c terminus: a fixed tail appended
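Also: lentivirally expressed fusions sorted by FACS into six bins by GFP to DsRed ratio, PSI derived from sequencing read proportions per bin multiplied by bin number.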

Protein stability index: each site, then its substitutions
H11: K 3.44; I 3.12; Y 3.35; F 3.46; A 3.42; R 3.99; G 3.79; N 4.02; W 3.24; V 3.35; P 4.4; C 3.69; E 4.37; Q 2.93; S 3.75; D 4.37; T 3.79; M 3.49; L 3.14
S20: F 2.54; V 3.23; D 4.01; P 3.67; N 3.91; T 3.75; R 3.84; E 4.26; W 2.63; I 3.84; Q 4.17; M 3.82; Y 2.98; G 4.22; C 2.69; K 3.92; L 3.44; A 3.98; H 3.18
S6: K 3.24; R 3.41; V 2.4; A 3.93; F 3.57; E 3.85; Y 3.5; M 3.4; I 3.04; N 3.51; Q 3.63; P 3.97; D 4.02; G 3.65; T 3.52; C 3.6; H 3.52; L 3.38
L8: T 4.24; C 4.04; P 3.84; R 4.15; N 3.74; K 4.14; V 4.11; F 3.59; I 4.07; M 4.01; E 4.35; Q 4.05; G 3.56; W 3.22; H 3.9; A 3.43; D 4.28; S 4.73; Y 3.24
L15: T 3.9; A 4.08; E 4.22; W 3.5; P 4.11; R 3.92; D 4.63; Q 3.83; M 4.08; I 3.9; S 4.94; V 3.81; K 3.94; H 4.02; Y 4.06; N 4.38; F 4.27; C 3.55; G 4.39
K10: A 4.32; L 3.43; F 2.75; E 3.48; V 2.96; C 3.52; D 4.32; N 3.77; P 4.05; W 3.35; M 3.46; H 3.58; S 3.88; T 4.02; Q 4.29; I 3.25; G 3.87; R 3.95; Y 2.76
K14: E 4.07; N 3.9; T 4.01; M 3.65; W 2.43; C 2.98; L 3.48; Y 3.1; S 3.79; P 4.01; I 3.1; H 3.81; A 3.61; G 4.33; V 3.13; Q 3.94; F 3.54; R 3.32; D 4.28
P5: G 3.01; Y 2.7; S 3.08; H 2.67; V 2.76; W 2.25; K 3.4; R 4; N 3.47; F 2.1; L 2.48; M 2.47; T 3.67; Q 3.4; I 2.12
L16: A 4.34; I 3.41; D 4.08; V 3.84; K 4.03; M 4.07; R 3.99; S 4.43; E 4.29; N 3.87; G 4.43; H 3.89; Y 3.85; T 4.31; C 4.37; P 4.12; Q 3.75; W 3.09; F 3.29
V19: G 4.31; Q 4.31; Y 2.94; M 2.98; E 4.21; K 3.67; C 3.17; R 3.69; L 3.43; H 4.11; T 4.18; D 4.57; I 3.8; W 2.52; F 2.85; S 4.21; A 4.06; P 4.53; N 3.91
D7: Y 3.2; Q 3.3; K 3.19; V 2.84; P 3.44; E 3.46; A 2.24; I 2.72; S 2.98; M 2.94; H 3.15; L 2.33; T 3.24; F 2.57; W 2.92; N 3.39; C 2.86; R 3.31; G 3.62
R13: C 3.49; L 4.05; D 4.09; E 4.59; S 4.36; N 3.95; T 3.98; Q 4.27; H 4.05; I 3.47; K 3.5; W 2.92; G 3.91; A 4.11; P 4.33; Y 3.63; M 3.12; F 2.89; V 3.78
R12: D 4.68; I 3.51; V 3.41; Q 4.29; Y 3.35; W 2.73; L 2.95; G 3.86; P 4.34; M 3.47; T 4.21; N 4.14; F 3.36; H 3.92; S 4.12; C 3.34; K 3.81; E 4.58; A 3.66
R21: V 3.91; A 4.18; D 4.16; W 3.32; I 3.9; P 3.91; E 4.47; L 3.84; Y 3.34; S 4.29; G 4; C 4.06; Q 4.36; N 3.85; F 3.54; H 4.17; T 4.12; M 4.09; K 4.44
P18: H 3.52; W 2.47; Y 3.42; L 3.44; V 4.09; D 4.7; F 2.83; Q 2.92; E 4.62; G 4.12; I 3.33; M 3.83; A 4.42; K 4.16; R 3.08; T 4.31; C 3.51; S 4.07; N 3.72
S17: V 3.53; R 3.77; N 3.88; W 2.9; E 3.86; G 3.9; T 4.23; Q 4.08; D 4.29; K 3.66; A 4.24; F 4.01; H 3.93; Y 4.07; M 3.48; C 3.65; I 3.45; P 4.17; L 3.73
R9: H 3.9; A 4.01; S 4.14; D 4.1; I 3.69; V 3.82; Q 4.49; N 4.18; K 4; G 4.46; Y 3.41; T 4; W 3.49; L 3.59; F 3.31; C 4.01; P 4.44; E 4.11; M 3.53
E22: Q 3.19; A 3.12; S 3.68; I 3.02; N 3.27; H 3.52; L 2.26; P 2.85; C 2.8; D 3.5; G 3.16; F 2.44; M 3.25; T 3.22; R 3.66; K 3.67
